In patent publication US11198871B2, “Riboswitch-mediated regulatory control of gene expression in thermophilic bacteria” (priority 2019, dated 2021):
Where two headings read alike, the source gives them in different places.

Test system: sfGFP
Assay type: cell-based, Geobacillus thermoglucosidasius
Conditions: for fold change (reduction) of maximal normalized fluorescence: 0.25 mM guanosine versus none; for maximal normalized fluorescence: mid-exponential growth, 55° C.
Description: To evaluate the T.s. riboswitches' regulatory activities, a thermophilic fluorescence reporter assay was used that included the use of super-folder green fluorescence protein (sfGFP) which is active in the aerobic thermophile, Geobacillus thermoglucosidasius (G.t.), at a growth temperature of 55° C. Both purine riboswitches from T.s. were inserted downstream of the pRp1S strong promoter respectively in plasmid pG1AK-sf such that the riboswitch controlled the expression of sfGFP once it was introduced into G.t. (see FIG. 2a and Table 1).
To trigger the regulatory response from the riboswitches, guanosine was used as the ligand as cells can import the compound and convert it into guanine enzymatically. […] As an additional control, a point mutation was introduced in the Tsac 2584 aptamer domain at position 74 (C74U). Position 74 is responsible for its interaction with guanine.
In an embodiment, and as depicted in FIG. 8, the normalized fluorescence of the cell culture is defined as: […]
To compare the normalized fluorescence between cultures growing with different ligand concentrations, the normalized fluorescence for each culture was averaged between the mid-log points where the OD was between 0.4 and 0.6.
G. thermoglucosidasius strains transformed with different plasmids were grown aerobically overnight in 5 ml TGP media (supplemental) with 12.5 μg/mL kanamycin at 55° C. and shaken at 200 rpm. The freshly grown overnight culture was used to inoculate 5 mL of fresh TGP media with kanamycin and incubated in the same condition for about 5 hrs when the cultures reached OD600 of about 1.0. This secondary growth culture was used to inoculate 5 ml of Defined Glucose Media (DG) with 250-fold dilution and was sub-aliquoted into a 96-well plate with 200 microliters per well where different concentrations of the effector ligand was added. The plate was incubated in a Greiner-Bio xxx plate reader and the OD600 and the fluorescence intensity (details of excitation and emission) was tracked for 24 hrs. To quantify the normalized fluorescence, the value of the raw fluorescence was taken when the cells were in mid-exponential phase (OD600 0.4-0.6) and divided by the optical density to normalize the fluorescence.

B1: Tsac 2588 (nucleic acid, listed as Thermoanaerobacterium saccharolyticum)
DNA: ATTGTGTCAGGACAAGTAAATAATAGCTCATATAATTCTGAGAATACGGCTCAGAAGTCTCTACCAGACAACCGTAAATTGTCTGACTATGAGTGAAAGTGTACCTGAGGGTTCCAGCCTTATTGTCCATGTGTAGAAAACAGTAAAGGCGTTCGGACCGAGCGGTACAGGCATTGTATTGCCACACCTGTGGGATAAAAGCCCGGGAGGATAGGTTTCACTCTATGTGTTGGAATCTATCATTCCGGGCTTGTTTATTTTTAAAATTCGTTTTTATTT
  fold change (reduction) of maximal normalized fluorescence: ~2.5 fold
0.25 mM guanosine
  maximal normalized fluorescence: 15±0.1 fluorescence units
With guanosine
  fluorescence in comparison to the control pG1AK parental plasmid: about 30%
Without guanosine
  maximal normalized fluorescence: 38±1 fluorescence units

B2: Tsac 2584 (nucleic acid, listed as Thermoanaerobacterium saccharolyticum)
DNA: B1 DNA
  fold change (reduction) of maximal normalized fluorescence: ~7 fold
0.25 mM guanosine
  maximal normalized fluorescence: 2.8±0.1 fluorescence units
Guanosine added, result in words
  guanosine-dependent repression of sfGFP: tight repression
Without guanosine
  maximal normalized fluorescence: 20±2 fluorescence units
